Holding throughout (assay): crystal structure
For test [1], the target named is F6, fused 4-oxalocrotonate tautomerase from Caballeronia arationis (Caballeronia arationis).
Test [2] addresses Q0, fused 4-oxalocrotonate tautomerase from Bordetella trematum (Bordetella trematum).
In test [3] the target is R7, fused 4-oxalocrotonate tautomerase from Burkholderia sp. RPE67 (Burkholderia sp. RPE67).
The target in test [4] is W0, fused 4-oxalocrotonate tautomerase from Advenella mimigardefordensis DPN7 (Advenella mimigardefordensis DPN7).

As usually defined, the stoichiometry N is the number of molecules, sites or subunits per partner or assembly.

For “F6, fused 4-oxalocrotonate tautomerase from Caballeronia arationis (enzyme)”, in test [1], the stoichiometry N turned out to be 3.
In test [2], “Q0, fused 4-oxalocrotonate tautomerase from Bordetella trematum (enzyme)” came in with a stoichiometry N of 3.
In test [3], “R7, fused 4-oxalocrotonate tautomerase from Burkholderia sp. RPE67 (enzyme)” came in with a stoichiometry N of 3.
Take “W0, fused 4-oxalocrotonate tautomerase from Advenella mimigardefordensis DPN7 (enzyme)”: the stoichiometry N in test [4] turned out to be 3.

The values are drawn from PMC7254967.
